Assay [1] has as its target CAP255 gp140 SpyTag (HIV-1 subtype C (patient CAP255)). Kind of assay: SEC + native gel or EMSA; lectin-purified CAP255 gp140 SpyTag on HiLoad 16/600 Superdex 200 pg; fractions on Blue NativePAGE 3-12% Bis-Tris gels, Coomassie. In general terms: Mobility shift assays separate free from complexed probe on a gel.
For assay [2], the target named is SpyCatcher mi3 nanoparticle. Kind of assay: cryo-EM structure; CAP255 gp140 SpyTag-SpyCatcher mi3 NPs; whole NP 9.4 Å (icosahedral), masked mi3 5.4 Å, single Env trimer-SpyCatcher 17.7 Å without symmetry.
The target in assay [3] is SpyCatcher mi3 nanoparticle. Briefly: negative stain electron microscopy; NPs alone or after coupling, on glow-discharged carbon-coated grids, 2% uranyl acetate; 2D classification and ~20 Å 3D maps with icosahedral symmetry imposed.
Assay [4] deals with SpyCatcher mi3 nanoparticle. Briefly: covalent SpyTag-SpyCatcher coupling, read by SDS-PAGE; MBP SpyTag mixed with SpyCatcher mi3 NPs at 1:1 and 1:2 molar ratios, 4 °C overnight, TBS (25 mM Tris-HCl, 300 mM NaCl, pH 8.5); Coomassie-stained SDS-PAGE, band intensities quantified.

As usually defined, the stoichiometry N is a count of units in the complex or per binding partner. Take “CAP255 gp140 SpyTag (domain or fragment)”: in assay [1], the stoichiometry N is 3. The stoichiometry N (Env trimers per NP) in assay [2] and in assay [3] was 12 in each case.

For the substance MBP SpyTag, in assay [4], the coupling efficiency was 100% and the stoichiometry N (MBP monomers per NP) was determined as 60.

The values are drawn from article PMC11436023.
